This note sets out measurements from PMC8015430 (Immunity, 2021).

The assay addresses T1, Recombinant Stabilized SARS-CoV-2 Spike (SARS-CoV-2, Wuhan-Hu-1 reference (wave …, UniProt P0DTC2, stabilised)).
T1 construct: also called Pre-fusion, stabilized and uncleaved SARS-CoV-2 Spike (pcDNA3.1+)
Put plainly: ELISA. The settings on record: both partners purified. A general note: An ELISA detects its analyte on a solid surface through an enzyme-linked reagent.

B1: COVA2-39 (antibody, V domains shown)
VH: QVQLVETGGGLIQPGGSLRLSCAASGFTVSSNYMSWVRQAPGKGLEWVSVIYTGGTTYYADSVKGRFTISRDNSKNTLYLQMNSLRAEDTAVYYCARAHVDTAMVESGAFDIWGQGTRVTVSS
VL: QSALTQPASVSGSPGQSITISCTGTSSDVGSYNLVSWYQQHPGKAPKLMIYEVTKRPSGVSNRFSGSKSGNTASLTISGLQAEDEADYYCCSYAGSSTWVFGGGTKLTVL
notes: IgG; RBD Class 2
Turning to B1, the binding result was “binds”.

B2: COVA1-16 (antibody, V domains shown)
VH: QVQLVQSGAEVKKPGASVKVSCKASGYTFTSYYMHWVRQAPGQGLEWMGIINSSGGSTSYAQKFQGRVTMTRDTSTSTVYMELSSLRSEDTAVYYCARPPRNYYDRSGYYQRAEYFQHWGQGTLVTVSS
VL: DIQLTQSPSSLSASVGDRVTITCQASQDISNYLNWYQQRPGKAPKLLIYDASNLETGVPSRFSGSGSGTDFTFTISSLQPEDIATYYCQQYDNPPLTFGGGTKLEIK
notes: IgG; RBD Class 4
B2: the binding result is reported as “binds”.
